According to IntAct's records for PubMed 21642969:

B1: Transcription intermediary factor 1-beta (Homo sapiens), Q13263 (parent)
chain: MAASAAAASAAAASAASGSPGPGEGSAGGEKRSTAPSAAASASASAAASSPAGGGAEALELLEHCGVCRERLRPEREPRLLPCLHSACSACLGPAAPAAANSSGDGGAAGDGTVVDCPVCKQQCFSKDIVENYFMRDSGSKAATDAQDANQCCTSCEDNAPATSYCVECSEPLCETCVEAHQRVKYTKDHTVRSTGPAKSRDGERTVYCNVHKHEPLVLFCESCDTLTCRDCQLNAHKDHQYQFLEDAVRNQRKLLASLVKRLGDKHATLQKSTKEVRSSIRQVSDVQKRVQVDVKMAILQIMKELNKRGRVLVNDAQKVTEGQQERLERQHWTMTKIQKHQEHILRFASWALESDNNTALLLSKKLIYFQLHRALKMIVDPVEPHGEMKFQWDLNAWTKSAEAFGKIVAERPGTNSTGPAPMAPPRAPGPLSKQGSGSSQPMEVQEGYGFGSGDDPYSSAEPHVSGVKRSRSGEGEVSGLMRKVPRVSLERLDLDLTADSQPPVFKVFPGSTTEDYNLIVIERGAAAAATGQPGTAPAGTPGAPPLAGMAIVKEEETEAAIGAPPTATEGPETKPVLMALAEGPGAEGPRLASPSGSTSSGLEVVAPEGTSAPGGGPGTLDDSATICRVCQKPGDLVMCNQCEFCFHLDCHLPALQDVPGEEWSCSLCHVLPDLKEEDGSLSLDGADSTGVVAKLSPANQRKCERVLLALFCHEPCRPLHQLATDSTFSLDQPGGTLDLTLIRARLQEKLSPPYSSPQEFAQDVGRMFKQFNKLTEDKADVQSIIGLQRFFETRMNEAFGDTKFSAVLVEPPPMSLPGAGLSSQELSGGPGDGP

Variants of: B1
Conditions: with chd3_human CHD3, Q12873
Chain of chd3_human CHD3, Q12873 (Q12873 whole entry): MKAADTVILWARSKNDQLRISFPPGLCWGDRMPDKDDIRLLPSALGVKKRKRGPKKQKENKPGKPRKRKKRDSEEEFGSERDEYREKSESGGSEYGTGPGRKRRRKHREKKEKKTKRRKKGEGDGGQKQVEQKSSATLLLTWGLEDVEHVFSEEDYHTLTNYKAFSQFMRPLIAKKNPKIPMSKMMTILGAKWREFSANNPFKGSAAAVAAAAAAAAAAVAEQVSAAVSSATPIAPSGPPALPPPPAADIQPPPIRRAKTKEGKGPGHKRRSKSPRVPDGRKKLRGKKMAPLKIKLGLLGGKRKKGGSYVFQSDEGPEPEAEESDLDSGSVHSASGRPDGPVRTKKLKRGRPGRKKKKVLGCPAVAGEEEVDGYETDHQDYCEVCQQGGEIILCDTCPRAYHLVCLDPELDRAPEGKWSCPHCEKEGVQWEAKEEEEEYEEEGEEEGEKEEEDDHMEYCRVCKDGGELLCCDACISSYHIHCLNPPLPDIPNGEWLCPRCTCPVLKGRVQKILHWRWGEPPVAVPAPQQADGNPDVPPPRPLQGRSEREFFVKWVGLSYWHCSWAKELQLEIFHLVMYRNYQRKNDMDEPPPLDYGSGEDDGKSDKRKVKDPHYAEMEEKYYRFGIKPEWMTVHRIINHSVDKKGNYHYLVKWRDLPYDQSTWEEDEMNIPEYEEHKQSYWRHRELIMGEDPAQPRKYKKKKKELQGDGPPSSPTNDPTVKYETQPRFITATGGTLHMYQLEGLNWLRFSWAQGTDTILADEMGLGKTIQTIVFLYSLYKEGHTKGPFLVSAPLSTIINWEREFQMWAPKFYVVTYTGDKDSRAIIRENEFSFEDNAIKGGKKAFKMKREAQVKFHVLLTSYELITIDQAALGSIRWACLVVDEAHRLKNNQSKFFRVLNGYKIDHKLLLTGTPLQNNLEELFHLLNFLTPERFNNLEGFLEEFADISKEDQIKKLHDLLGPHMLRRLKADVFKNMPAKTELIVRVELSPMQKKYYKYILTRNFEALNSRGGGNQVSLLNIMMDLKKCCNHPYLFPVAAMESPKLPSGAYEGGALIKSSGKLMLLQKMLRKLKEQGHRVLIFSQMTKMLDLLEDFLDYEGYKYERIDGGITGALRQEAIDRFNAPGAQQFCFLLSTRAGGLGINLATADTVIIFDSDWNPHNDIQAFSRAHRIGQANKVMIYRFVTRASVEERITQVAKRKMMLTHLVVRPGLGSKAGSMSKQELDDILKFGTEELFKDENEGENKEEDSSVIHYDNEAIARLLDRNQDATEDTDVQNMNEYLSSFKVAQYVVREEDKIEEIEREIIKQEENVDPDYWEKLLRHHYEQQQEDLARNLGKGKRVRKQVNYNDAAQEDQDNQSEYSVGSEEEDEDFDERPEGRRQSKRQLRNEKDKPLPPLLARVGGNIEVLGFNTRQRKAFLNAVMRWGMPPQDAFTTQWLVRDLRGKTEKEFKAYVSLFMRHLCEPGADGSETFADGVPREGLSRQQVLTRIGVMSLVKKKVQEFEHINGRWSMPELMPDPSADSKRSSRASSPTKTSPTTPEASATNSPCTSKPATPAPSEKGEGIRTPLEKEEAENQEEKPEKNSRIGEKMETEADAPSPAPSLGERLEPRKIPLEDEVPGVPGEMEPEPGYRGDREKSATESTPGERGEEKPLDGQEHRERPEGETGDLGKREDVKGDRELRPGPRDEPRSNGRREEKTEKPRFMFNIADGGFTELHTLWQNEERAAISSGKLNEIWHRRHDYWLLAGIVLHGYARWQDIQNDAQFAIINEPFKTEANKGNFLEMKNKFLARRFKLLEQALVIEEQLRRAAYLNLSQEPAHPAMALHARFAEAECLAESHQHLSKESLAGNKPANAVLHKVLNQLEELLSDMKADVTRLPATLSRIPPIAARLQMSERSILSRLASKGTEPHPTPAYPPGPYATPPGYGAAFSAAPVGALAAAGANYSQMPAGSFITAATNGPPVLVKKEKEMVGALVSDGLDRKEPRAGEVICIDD

Row | Variant | effect of a mutation on the interaction
1 | K554R;K779R;K804R | disrupting interaction
2 | S824D | decreasing interaction
